Molecular target: ZF-AS, fusion protein containing ZF5.3 and human argininosuccinate synthetase (human)
Experiment: SEC

stoichiometry N: 4
Substance: ZF-AS, fusion protein containing ZF5.3 and human argininosuccinate synthetase (enzyme)

— article PMC8155463
